% activity, 100 µM and inhibition of kinase activity data for one substance are collected here from US20140072613A1, “Compositions and Methods for Treating Cutaneous Scarring” (priority 2012, published 2014).

Where only a bound is given, the exact number is not on record here.

Targets include CDK3/cyclinE(h) (human) (UniProt Q00526); CHK2(I157T)(h) (human) (UniProt O96017); Flt4(h) (human) (UniProt P35916); MAPKAP-K2(h) (human) (UniProt P49137); PKCι(h) (human) (UniProt P41743); SGK(h) (human) (UniProt O00141); cKit(D816V)(h) (human) (UniProt P10721).
Holding throughout (experiment): cell-based or functional assay
A further assay deals with T1, DDR2(h) (human) (UniProt Q16832).
T1 sequence (looked up): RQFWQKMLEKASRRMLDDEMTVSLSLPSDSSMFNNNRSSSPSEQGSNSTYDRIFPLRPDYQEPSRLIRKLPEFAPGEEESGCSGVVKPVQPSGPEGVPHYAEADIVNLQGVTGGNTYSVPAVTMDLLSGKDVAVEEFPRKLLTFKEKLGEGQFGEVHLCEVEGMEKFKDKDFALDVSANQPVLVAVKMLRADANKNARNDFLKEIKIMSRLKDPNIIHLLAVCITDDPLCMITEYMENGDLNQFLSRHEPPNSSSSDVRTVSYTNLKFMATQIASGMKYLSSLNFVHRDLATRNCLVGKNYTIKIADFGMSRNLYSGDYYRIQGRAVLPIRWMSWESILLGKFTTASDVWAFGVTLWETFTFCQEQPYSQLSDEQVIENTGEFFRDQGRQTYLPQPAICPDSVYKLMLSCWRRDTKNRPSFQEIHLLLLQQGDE

The target in a further assay is T2, EphA5(h) (human) (UniProt P54756).
T2 sequence (looked up): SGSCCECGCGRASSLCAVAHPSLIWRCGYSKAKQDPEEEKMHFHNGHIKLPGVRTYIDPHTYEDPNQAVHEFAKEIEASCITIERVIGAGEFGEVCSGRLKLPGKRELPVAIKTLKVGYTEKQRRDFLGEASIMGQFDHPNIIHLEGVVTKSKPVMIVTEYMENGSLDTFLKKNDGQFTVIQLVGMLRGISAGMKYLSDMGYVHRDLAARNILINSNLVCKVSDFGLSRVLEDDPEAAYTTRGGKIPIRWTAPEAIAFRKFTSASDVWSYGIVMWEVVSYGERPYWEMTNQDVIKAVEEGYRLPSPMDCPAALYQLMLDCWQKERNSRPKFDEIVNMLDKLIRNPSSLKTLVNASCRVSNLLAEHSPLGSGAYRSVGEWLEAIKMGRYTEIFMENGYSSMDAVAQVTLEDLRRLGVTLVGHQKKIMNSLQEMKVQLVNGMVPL

The next assay concerns the target T3, Mer(h) (human) (UniProt Q12866).
T3 sequence (looked up): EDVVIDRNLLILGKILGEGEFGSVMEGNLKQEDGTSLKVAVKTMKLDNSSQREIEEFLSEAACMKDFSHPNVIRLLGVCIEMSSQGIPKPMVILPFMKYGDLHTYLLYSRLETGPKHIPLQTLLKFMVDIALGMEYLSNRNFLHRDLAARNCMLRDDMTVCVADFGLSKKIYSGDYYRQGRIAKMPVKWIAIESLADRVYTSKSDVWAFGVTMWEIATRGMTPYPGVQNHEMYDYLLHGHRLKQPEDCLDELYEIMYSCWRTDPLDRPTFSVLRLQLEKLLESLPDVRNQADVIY

The target in another assay is T4, PKCµ(h) (human) (UniProt Q15139).
T4 sequence (looked up): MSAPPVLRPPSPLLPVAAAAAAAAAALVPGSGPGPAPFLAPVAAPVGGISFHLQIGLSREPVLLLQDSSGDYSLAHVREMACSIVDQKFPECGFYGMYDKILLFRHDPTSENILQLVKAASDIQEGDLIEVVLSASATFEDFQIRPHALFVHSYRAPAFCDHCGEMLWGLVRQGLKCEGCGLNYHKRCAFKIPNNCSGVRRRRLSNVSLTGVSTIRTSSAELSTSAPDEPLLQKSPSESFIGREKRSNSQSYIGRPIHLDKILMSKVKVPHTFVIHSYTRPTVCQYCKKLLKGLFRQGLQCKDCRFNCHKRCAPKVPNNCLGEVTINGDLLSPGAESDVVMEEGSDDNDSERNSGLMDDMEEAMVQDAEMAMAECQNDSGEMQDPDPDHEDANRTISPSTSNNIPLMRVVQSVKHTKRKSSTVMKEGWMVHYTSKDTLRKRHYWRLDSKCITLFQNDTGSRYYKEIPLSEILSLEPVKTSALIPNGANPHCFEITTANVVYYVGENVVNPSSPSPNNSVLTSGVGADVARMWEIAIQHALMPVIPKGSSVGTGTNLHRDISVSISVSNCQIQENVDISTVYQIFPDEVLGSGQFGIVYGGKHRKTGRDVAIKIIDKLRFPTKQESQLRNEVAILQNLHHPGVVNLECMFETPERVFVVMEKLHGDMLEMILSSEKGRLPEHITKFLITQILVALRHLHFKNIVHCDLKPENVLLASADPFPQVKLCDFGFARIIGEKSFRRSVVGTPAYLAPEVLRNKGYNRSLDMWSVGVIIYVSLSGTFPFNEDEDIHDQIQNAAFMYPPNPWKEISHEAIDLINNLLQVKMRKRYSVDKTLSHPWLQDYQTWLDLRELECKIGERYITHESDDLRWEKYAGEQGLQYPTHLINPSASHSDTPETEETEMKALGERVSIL

Sequence of MAPKAP-K2(h) (human) (P49137 46-400 limits assumed): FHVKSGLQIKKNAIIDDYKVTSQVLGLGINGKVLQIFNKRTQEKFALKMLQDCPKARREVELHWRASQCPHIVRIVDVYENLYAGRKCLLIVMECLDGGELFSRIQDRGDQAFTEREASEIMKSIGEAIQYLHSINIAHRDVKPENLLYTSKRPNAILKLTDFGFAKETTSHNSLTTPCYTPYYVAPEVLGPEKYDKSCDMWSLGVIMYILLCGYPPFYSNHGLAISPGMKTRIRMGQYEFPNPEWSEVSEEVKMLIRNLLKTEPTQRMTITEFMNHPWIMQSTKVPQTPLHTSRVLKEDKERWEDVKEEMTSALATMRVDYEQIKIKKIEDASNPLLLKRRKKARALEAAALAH
Sequence of cKit(D816V)(h) (human) (P10721 544-976 D816V): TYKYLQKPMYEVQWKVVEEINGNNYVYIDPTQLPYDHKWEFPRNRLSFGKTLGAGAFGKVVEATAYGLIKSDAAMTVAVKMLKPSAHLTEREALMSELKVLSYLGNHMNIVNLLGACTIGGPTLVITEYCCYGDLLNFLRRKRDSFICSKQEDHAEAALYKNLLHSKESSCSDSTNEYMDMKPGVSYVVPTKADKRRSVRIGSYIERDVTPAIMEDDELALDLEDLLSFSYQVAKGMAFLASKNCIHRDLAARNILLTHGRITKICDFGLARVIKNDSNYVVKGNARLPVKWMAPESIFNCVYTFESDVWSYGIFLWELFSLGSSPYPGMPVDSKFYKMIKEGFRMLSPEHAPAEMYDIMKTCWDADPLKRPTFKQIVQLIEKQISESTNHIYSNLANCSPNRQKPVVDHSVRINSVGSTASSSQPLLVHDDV
Sequence of PKCι(h) (human) (P41743 whole entry): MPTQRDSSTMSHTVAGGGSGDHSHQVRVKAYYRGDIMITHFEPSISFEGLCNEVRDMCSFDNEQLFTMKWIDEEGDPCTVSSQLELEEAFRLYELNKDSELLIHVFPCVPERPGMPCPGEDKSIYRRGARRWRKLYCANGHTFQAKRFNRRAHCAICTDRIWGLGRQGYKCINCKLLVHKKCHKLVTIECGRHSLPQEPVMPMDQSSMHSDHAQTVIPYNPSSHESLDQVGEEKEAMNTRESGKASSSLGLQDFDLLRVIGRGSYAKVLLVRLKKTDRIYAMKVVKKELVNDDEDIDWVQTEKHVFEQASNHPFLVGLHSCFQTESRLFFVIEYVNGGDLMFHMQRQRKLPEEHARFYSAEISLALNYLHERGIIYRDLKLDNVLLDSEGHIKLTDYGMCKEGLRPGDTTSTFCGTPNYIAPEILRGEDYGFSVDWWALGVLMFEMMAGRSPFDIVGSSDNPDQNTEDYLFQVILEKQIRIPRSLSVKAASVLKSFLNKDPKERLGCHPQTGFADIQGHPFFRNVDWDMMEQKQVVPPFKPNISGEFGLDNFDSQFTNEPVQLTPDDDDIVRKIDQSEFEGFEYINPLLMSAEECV
Sequence of Flt4(h) (human) (P35916 800-1363 limits assumed): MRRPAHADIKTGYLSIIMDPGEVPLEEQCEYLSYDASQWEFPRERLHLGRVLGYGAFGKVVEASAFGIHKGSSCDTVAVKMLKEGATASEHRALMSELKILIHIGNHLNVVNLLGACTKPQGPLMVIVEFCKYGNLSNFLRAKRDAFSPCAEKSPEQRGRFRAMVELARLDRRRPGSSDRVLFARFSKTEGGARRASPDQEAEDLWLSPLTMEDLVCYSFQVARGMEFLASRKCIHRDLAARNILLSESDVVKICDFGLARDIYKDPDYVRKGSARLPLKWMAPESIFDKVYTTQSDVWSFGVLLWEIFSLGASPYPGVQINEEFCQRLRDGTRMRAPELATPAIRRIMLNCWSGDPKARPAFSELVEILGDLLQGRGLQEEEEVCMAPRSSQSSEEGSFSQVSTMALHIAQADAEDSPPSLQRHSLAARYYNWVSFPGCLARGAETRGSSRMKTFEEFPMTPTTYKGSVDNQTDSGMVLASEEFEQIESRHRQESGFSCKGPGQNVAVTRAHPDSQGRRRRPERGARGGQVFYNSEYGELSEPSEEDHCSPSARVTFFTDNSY
Sequence of SGK(h) (human) (O00141 60-431 limits assumed): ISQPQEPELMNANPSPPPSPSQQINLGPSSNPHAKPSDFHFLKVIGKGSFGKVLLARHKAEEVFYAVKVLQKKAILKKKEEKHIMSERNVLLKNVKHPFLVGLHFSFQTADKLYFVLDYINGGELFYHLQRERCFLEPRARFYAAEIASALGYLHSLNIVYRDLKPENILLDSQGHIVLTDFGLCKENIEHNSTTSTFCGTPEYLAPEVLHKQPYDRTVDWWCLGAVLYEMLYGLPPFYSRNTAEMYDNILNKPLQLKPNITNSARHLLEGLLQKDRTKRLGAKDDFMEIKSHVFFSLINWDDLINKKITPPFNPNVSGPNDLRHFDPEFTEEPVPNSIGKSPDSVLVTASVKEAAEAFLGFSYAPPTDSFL
Sequence of CHK2(I157T)(h) (human) (O96017 5-543 I157T limits assumed): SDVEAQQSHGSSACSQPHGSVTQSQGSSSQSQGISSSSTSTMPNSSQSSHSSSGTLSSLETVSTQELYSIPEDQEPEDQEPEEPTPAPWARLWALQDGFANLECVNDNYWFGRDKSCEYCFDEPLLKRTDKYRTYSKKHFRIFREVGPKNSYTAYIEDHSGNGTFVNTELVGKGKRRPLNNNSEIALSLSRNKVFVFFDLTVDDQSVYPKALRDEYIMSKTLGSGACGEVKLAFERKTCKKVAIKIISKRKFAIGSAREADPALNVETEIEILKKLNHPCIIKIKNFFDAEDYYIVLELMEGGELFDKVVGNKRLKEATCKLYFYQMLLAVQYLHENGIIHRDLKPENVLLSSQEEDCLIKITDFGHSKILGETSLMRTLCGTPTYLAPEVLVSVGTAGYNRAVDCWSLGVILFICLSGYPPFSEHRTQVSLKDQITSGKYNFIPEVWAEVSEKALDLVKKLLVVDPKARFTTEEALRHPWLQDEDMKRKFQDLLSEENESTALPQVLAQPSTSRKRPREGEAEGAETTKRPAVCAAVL

As to MMI-0500 (peptide), the % activity, 100 µM was determined as 8% with CDK3/cyclinE(h) (human); 3% with CHK2(I157T)(h) (human); 79% with DDR2(h) (human); 42% in the assay with EphA5(h) (human); 73% in the assay with Flt4(h) (human); 9% with MAPKAP-K2(h) (human). Also, the % activity, 100 µM with Mer(h) (human) came to 17%; with PKCµ(h) (human) it was 10%; with PKCι(h) (human), 7%; with SGK(h) (human), 2%; in the assay with cKit(D816V)(h) (human) it was 30%. The inhibition of kinase activity at 100 µM with MAPKAP-K2(h) (human) was > 65%.
